# Laboratory results: patent US20100015637A1 (AbbVie / Abbott, published 2010)
# T1: CHO human PlGF-1 fragment (comprising amino acids 17-131; ATCC PTA-8540) (human, UniProt P49763 35-221)
# T1 sequence: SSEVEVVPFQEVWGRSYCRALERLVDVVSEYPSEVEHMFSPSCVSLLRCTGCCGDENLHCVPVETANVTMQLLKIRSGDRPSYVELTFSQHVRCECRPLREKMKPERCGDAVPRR
# T2: CHO human PlGF-1 comprising amino acids 1-137 (human PlGF-1-His (1-131), CHO 6305) (human, UniProt P49763 19-221, N-glycans at N21 (completely glycosylated) and N89 (partially glycosylated))
# T2 construct: Mature human PlGF-1 with 6xHis tag (137 amino acids); also called CHO (1-137)
# T2 sequence: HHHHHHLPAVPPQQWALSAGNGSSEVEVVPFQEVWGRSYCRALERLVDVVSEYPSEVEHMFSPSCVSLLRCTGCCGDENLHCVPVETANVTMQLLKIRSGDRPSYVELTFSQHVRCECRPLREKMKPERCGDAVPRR
# T3: human PlGF-1 fragment (comprising amino acids 17-131) produced in human embryonic kidney cells (human, UniProt P49763 35-221)
# T3 sequence: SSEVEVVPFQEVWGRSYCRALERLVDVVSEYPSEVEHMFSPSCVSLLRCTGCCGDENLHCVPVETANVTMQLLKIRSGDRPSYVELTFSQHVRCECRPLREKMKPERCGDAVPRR
# T4: human PlGF-1 comprising amino acids 1-137 produced in human embryonic kidney cells (human, UniProt P49763 19-221)
# T4 construct: Mature human PlGF-1 with 6xHis tag; also called HEK (1-137); full length HEK human PlGF-1 (1-137)
# T4 sequence: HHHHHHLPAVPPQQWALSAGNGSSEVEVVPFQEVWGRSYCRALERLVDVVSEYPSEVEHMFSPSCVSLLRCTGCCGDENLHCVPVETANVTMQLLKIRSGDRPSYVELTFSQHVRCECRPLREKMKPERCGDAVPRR
# Experiments:
# [1] = biological target: human PlGF-1 comprising amino acids 1-137 produced in human embryonic kidney cells (human) (UniProt P49763); experiment: Format 2 …, capture MAb264, detection Pb264; sFlt-1 613 pmol/L (ratio 20)
# [2] = biological target: human PlGF-1 comprising amino acids 1-137 produced in human embryonic kidney cells (human) (UniProt P49763); experiment: Format 2 …, capture MAb264, detection Pb264; sFlt-1 4600 pmol/L (ratio 150)
# [3] = biological target: human PlGF-1 comprising amino acids 1-137 produced in human embryonic kidney cells (human) (UniProt P49763); experiment: Format 1 …, capture 2-826-335, detection 1-255-713; sFlt-1 153 pmol/L (ratio 5)
# [4] = biological target: human PlGF-1 comprising amino acids 1-137 produced in human embryonic kidney cells (human) (UniProt P49763); experiment: Format 1 …, capture 2-826-335, detection 1-255-713; sFlt-1 4600 pmol/L (ratio 150)
# [5] = biological target: T1, CHO human PlGF-1 fragment (comprising …); experiment: … sandwich, capture MAb826, detection pAb264; antigen 15 pg/mL
# [6] = biological target: T2, CHO human PlGF-1 comprising amino acids …; experiment: as above
# [7] = biological target: T3, human PlGF-1 fragment (comprising amino …); experiment: as above
# [8] = biological target: T4, human PlGF-1 comprising amino acids …; experiment: as above
# [9] = biological target: recombinant human PlGF-1 (comprising amino acids 1-131) expressed in E. coli (R&D Systems) (human) (UniProt P49763); experiment: … sandwich, capture MAb826, detection pAb264; antigen 0 pg/mL (blank)
# [10] = biological target: T1, CHO human PlGF-1 fragment (comprising …); experiment: … sandwich, capture MAb255, detection pAb264; antigen 750 pg/mL
# [11] = biological target: T2, CHO human PlGF-1 comprising amino acids …; experiment: as above
# [12] = biological target: T3, human PlGF-1 fragment (comprising amino …); experiment: as above
# [13] = biological target: T4, human PlGF-1 comprising amino acids …; experiment: as above
# [14] = biological target: recombinant human PlGF-1 (comprising amino acids 1-131) expressed in E. coli (R&D Systems) (human) (UniProt P49763); experiment: … sandwich, capture MAb255, detection MAb826; antigen 1500 pg/mL
# [15] = biological target: recombinant human PlGF-1 (comprising amino acids 1-131) expressed in E. coli (R&D Systems) (human) (UniProt P49763); experiment: … sandwich, capture MAb255, detection MAb826; antigen 0 pg/mL (blank)
# [16] = biological target: T1, CHO human PlGF-1 fragment (comprising …); experiment: … sandwich, capture MAb255, detection pAb264; antigen 0 pg/mL (blank)
# [17] = biological target: T2, CHO human PlGF-1 comprising amino acids …; experiment: as above
# [18] = biological target: T3, human PlGF-1 fragment (comprising amino …); experiment: as above
# [19] = biological target: T4, human PlGF-1 comprising amino acids …; experiment: as above
# [20] = biological target: recombinant human PlGF-1 (comprising amino acids 1-131) expressed in E. coli (R&D Systems) (human) (UniProt P49763); experiment: … sandwich, capture MAb255, detection MAb826; antigen 250 pg/mL
molecule,measurement,setting,value
"native sFlt-1, isolated from human placental tissue (from UniProt P17948 27-687) (receptor)",% Inhibition,[1],89.5%
same,PlGF-1 Measured,[1],82.9 pg/mL
same,% Inhibition,[2],96.5%
same,PlGF-1 Measured,[2],27.5 pg/mL
same,% Inhibition,[3],64.1%
same,PlGF-1 Measured,[3],367 pg/mL
same,% Inhibition,[4],95%
same,PlGF-1 Measured,[4],51.3 pg/mL
"monoclonal antibody 2-826-335 (produced by murine hybridoma cell line 2-826-335, ATCC PTA-8539) (antibody, mouse IgG1, V domains shown, also called MAb826) VH: QVQLKQSGPGLVQPSQSLSITCTVSGFSLTTYGIHWVRQSPGKGLEWLGVMWSGGDTDYDAAFISRLSISKDNSKSQVFFKMNSLQANDTGIYYCARYRFYGMDYWGQGTSVTVSS VL: AIQMTQSSSSFSVSLGDRVTITCKASEDIYNRFAWYQQKPGNAPRLLISGAASLEAGVPSRFSGSGSGQDYTLSITSLQTEDVATYYCQQYWSTPWTFGGGTKLEIKR",RLU,[5],11200 RLU
same,RLU,[6],10100 RLU
same,RLU,[7],12800 RLU
same,RLU,[8],15500 RLU
same,RLU,[9],6410 RLU
"monoclonal antibody 1-255-713 (produced by murine hybridoma cell line 1-255-713, ATCC PTA-8536) (antibody, mouse IgG2a, V domains shown, also called MAb255) VH: QVHLQQSGAELMKPGASVKISCKATGYTFSSYWIEWVKQRPGHGLEWIGEILPGSVSNNFNEKFKDKATLTADPSSNTAYIQVSSLTSEDSAVYYCARSTGFYYGGNYFDHWGQGTTLAVSS VL: DVVMTQTPLSLPVSPGDQASISCRSSQSLVHSNGHTYLHWYLQKPGQSPKLLIYKVSNRFSGVPDRVSGSGSGTDFTLKISRVEAEDLGVYFCSQSTHVPPTFGGGTKLEIKR",RLU,[10],713000 RLU
same,RLU,[11],599000 RLU
same,RLU,[12],908000 RLU
same,RLU,[13],1.31e+06 RLU
same,RLU,[14],1.35e+06 RLU
same,RLU,[15],6110 RLU
same,RLU,[16],14400 RLU
same,RLU,[17],14500 RLU
same,RLU,[18],14200 RLU
same,RLU,[19],14200 RLU
same,RLU,[20],298000 RLU
